Measured values reported in paper PMC11002876, “KcsA-Kv1.x chimeras with complete ligand-binding sites provide improved predictivity for screening selective Kv1.x blockers” (The Journal of Biological Chemistry, 2024).

How the values were obtained:
[1] = target: KcsA-Kv1.2 turret-only chimera (Streptomyces lividans | human); experiment: native gel or EMSA
[2] = target: KcsA-Kv1.3 turret-filter chimera (Streptomyces lividans | human); experiment: SDS-PAGE and western blot; purified proteins, 0.5 ug/well, Tris-Glycine gradient gel, 200 V 55 min; western blot with anti-His antibody; monomers and tetramers by migration
[3] = target: KcsA-Kv1.3 turret-filter chimera (Streptomyces lividans | human); experiment: native gel or EMSA
[4] = target: KcsA-Kv1.3 turret-filter chimera (Streptomyces lividans | human); experiment: ELISA
[5] = target: KcsA-Kv1.3 turret-only chimera (Streptomyces lividans | human); experiment: ELISA
[6] = target: KcsA-Kv1.2 turret-filter chimera (Streptomyces lividans | human); experiment: ELISA
[7] = target: KcsA-Kv1.2 turret-only chimera (Streptomyces lividans | human); experiment: ELISA
[8] = target: KcsA-Kv1.1 turret-only chimera (Streptomyces lividans | human); experiment: ELISA
[9] = target: KcsA-Kv1.1 turret-filter chimera (Streptomyces lividans | human); experiment: ELISA
[10] = target: KcsA-Kv1.2 turret-filter chimera (Streptomyces lividans | human); experiment: native gel or EMSA
[11] = test system: human Kv1.3 channel (hKv1.3); experiment: Whole-cell patch-clamp of phage-displayed toxins, hKv1.3 in human lymphocytes; type: cell-based; conditions: perfusion concentration; phage-displayed toxin; experimentally titrated; N = 3
Protocol: Human Kv1.3 currents were recorded from activated peripheral blood mononuclear cells (see below) 3 to 4 days after activation. Heparinized human peripheral venous blood was obtained from healthy volunteers. Mononuclear cells were separated through Histopaque-1077 density gradient centrifugation. Collected cells were washed twice with Ca^2+- and Mg^2+-free Hanks’ solution containing 25 mM Hepes buffer, pH 7.4. Cells were cultured for 3 to 4 days in 24-well culture plates in a 5% CO2 incubator at 37 °C, in RPMI 1640 medium supplemented with 10% fetal calf serum (Sigma-Aldrich), 100 μg/ml penicillin, 100 μg/ml streptomycin, and 2 mM L-glutamine (density, 0.5 × 10^6 cells per ml). Phytohemagglutinin A (Sigma-Aldrich) was added to the medium at 10 μg/ml to amplify the Kv1.3 expression. Cells were washed gently twice with 2 ml of ECS for the patch-clamp experiments.
Conventional whole-cell patch-clamp electrophysiology was used to record ionic currents. Micropipettes were pulled from GC150F-7.5 borosilicate capillaries (Harvard Apparatus) with tip diameters between 0.5 and 1 μm resulting in a tip resistance of 2 to 8 MΩ in the extracellular (bath) solution. All measurements were carried out by using Axopatch 200B amplifier connected to a personal computer using Axon Digidata 1550A data acquisition hardware and Pclamp10.7 software (https://support.moleculardevices.com/s/article/Axon-pCLAMP-10-Electrophysiology-Data-Acquisition-Analysis-Software-Download-Page). The holding potential was −120 mV. Records were discarded when leak at the holding potential was >10% of peak current at the test potential. Experiments were performed at room temperature (20–24 °C). Before analysis, whole-cell current traces were corrected for ohmic leakage and digitally filtered with a three-point boxcar smoothing filter.
Solutions: all salts and components of the solutions were purchased from Sigma Aldrich. The extracellular (bath) solution (ECS) contained 145 mM NaCl, 5 mM KCl, 2.5 mM CaCl2, 1 mM MgCl2, 10 mM Hepes, and 5.5 mM glucose (pH 7.35 with NaOH), while the intracellular (pipette) solution (ICS) contained 140 mM KF, 2 mM MgCl2, 1 mM CaCl2, 11 mM EGTA, and 10 mM Hepes (pH 7.22 with KOH). The osmolarity of the ECS and ICS were 302 mOsM.
Native peptides, phage-expressed peptides, and positive controls used for them were dissolved in ECS supplemented with 0.1 mg/ml bovine serum albumin (BSA; Sigma-Aldrich Hungary). Bath perfusion around the measured cell with different extracellular solutions was achieved using a gravity flow micro perfusion system using a rate of 0.5 ml/min. Excess fluid was removed continuously.
Voltage protocols: For measurement of Kv1.1 to 1.3 currents, voltage steps to +50 mV were applied from a holding potential of −120 mV and the peak current was measured every 15 s. For Kv1.3 currents, 15-ms-long depolarizing pulses were applied. For Kv1.1, 50-ms-long–activating stimuli were used. Kv1.2 currents were evoked by 200-ms-long pulses. […] The remaining current fraction at a given molar concentration was calculated as I/I0, where I0 is the peak current in the absence and I is the peak current at equilibrium block or […] after ∼2 min perfusion by the investigated peptide/phage.
Phage display test solutions were prepared according to routine phage display protocols ([62]). Phosphorylated and annealed oligonucleotides encoding the peptide construct were ligated into linearized pAS62 phagemid vector (https://patents.google.com/patent/WO2022144560A1/en) at a vector/insert ratio of 1:3. The final phagemid construct harbored a signal sequence followed by the peptide of interest, a linker sequence ([…]), and the C-terminal part of the P3 coat protein (amino acids: 216-424 of NP_510891.1). Chemically competent XL1-Blue E. coli cells (2022249, Agilent) were transformed with the ligation product and then streaked onto ampicillin (100 μg/ml) containing LB/Amp plates and incubated for 16 h at 37 °C.

[12] = target: human Kv1.3 voltage-gated potassium channel on activated human lymphocytes (human (endogenous in peripheral blood mononuclear cells)) (UniProt P22001)
Chain of human Kv1.3 voltage-gated potassium channel on activated human lymphocytes (human (endogenous in peripheral blood mononuclear cells)) (P22001 whole entry): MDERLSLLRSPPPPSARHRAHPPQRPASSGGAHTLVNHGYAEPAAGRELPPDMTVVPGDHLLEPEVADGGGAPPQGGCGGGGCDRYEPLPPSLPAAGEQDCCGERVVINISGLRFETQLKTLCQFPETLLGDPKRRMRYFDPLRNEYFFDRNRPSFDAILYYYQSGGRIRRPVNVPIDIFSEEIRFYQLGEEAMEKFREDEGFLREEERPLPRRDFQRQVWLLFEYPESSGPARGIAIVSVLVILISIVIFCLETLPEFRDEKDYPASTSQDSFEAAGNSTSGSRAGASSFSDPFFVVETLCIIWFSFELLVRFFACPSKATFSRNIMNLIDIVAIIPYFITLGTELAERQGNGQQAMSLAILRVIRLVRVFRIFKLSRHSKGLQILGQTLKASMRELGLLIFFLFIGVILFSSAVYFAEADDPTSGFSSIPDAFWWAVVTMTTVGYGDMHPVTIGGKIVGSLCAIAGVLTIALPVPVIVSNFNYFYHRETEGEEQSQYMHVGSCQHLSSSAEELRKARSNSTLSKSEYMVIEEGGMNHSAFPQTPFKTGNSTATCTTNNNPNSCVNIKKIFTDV

[13] = target: human Kv1.3 voltage-gated potassium channel on activated human lymphocytes (human (endogenous in peripheral blood mononuclear cells)) (UniProt P22001); remark: listed apart in the source
[14] = target: KcsA-Kv1.1 turret-only chimera (Streptomyces lividans | human); experiment: SDS-PAGE and western blot; purified proteins, 0.5 ug/well, Tris-Glycine gradient gel, 200 V 55 min; western blot with anti-His antibody; monomers and tetramers by migration
[15] = target: KcsA-Kv1.1 turret-only chimera (Streptomyces lividans | human); experiment: native gel or EMSA
[16] = target: KcsA-Kv1.1 turret-filter chimera (Streptomyces lividans | human); experiment: SDS-PAGE and western blot; purified proteins, 0.5 ug/well, Tris-Glycine gradient gel, 200 V 55 min; western blot with anti-His antibody; monomers and tetramers by migration
[17] = target: KcsA-Kv1.1 turret-filter chimera (Streptomyces lividans | human); experiment: native gel or EMSA
[18] = target: KcsA-Kv1.3 turret-only chimera (Streptomyces lividans | human); experiment: SDS-PAGE and western blot; purified proteins, 0.5 ug/well, Tris-Glycine gradient gel, 200 V 55 min; western blot with anti-His antibody; monomers and tetramers by migration
[19] = target: KcsA-Kv1.3 turret-only chimera (Streptomyces lividans | human); experiment: native gel or EMSA

**Q.** For KcsA-Kv1.2 turret-only chimera, which stoichiometry N [1] is on record?
**A.** 4

**Q.** KcsA-Kv1.3 turret-filter chimera was tested. Which stoichiometry N [2] did it give?
**A.** 4

**Q.** And the stoichiometry N [3]?
**A.** 4

**Q.** For “Hongotoxin-1, synthetic peptide (from UniProt P59847 1-39)”, which IC50 [4] is on record?
**A.** 0.108 nM

**Q.** What about the IC50 [5] of the same molecule?
**A.** 0.671 nM

**Q.** How did the IC50 [6] turn out when “Kaliotoxin-1, synthetic peptide (from UniProt P24662 1-38)” was run?
**A.** 205 nM

**Q.** And the IC50 [7]?
**A.** 0.185 nM

**Q.** And the IC50 [8]?
**A.** 1.27 nM

**Q.** What about the IC50 [4] of the same molecule?
**A.** 98.2 nM

**Q.** What about the IC50 [9] of the same molecule?
**A.** 1.49 nM

**Q.** And the IC50 [5]?
**A.** 0.416 nM

**Q.** With Vm24 toxin, synthetic peptide as the molecule, how does the IC50 [4] read?
**A.** 0.036 nM

**Q.** What about the IC50 [5] of the same molecule?
**A.** 0.577 nM

**Q.** Which IC50 [6] does the source give for “Stichodactyla toxin ShK, synthetic peptide” here?
**A.** 15.9 nM

**Q.** And the IC50 [7]?
**A.** 0.07 nM

**Q.** What about the IC50 [8] of the same molecule?
**A.** 0.317 nM

**Q.** And the IC50 [9]?
**A.** 0.271 nM

**Q.** How did the stoichiometry N [10] turn out when KcsA-Kv1.2 turret-filter chimera was run?
**A.** 4

**Q.** With “KTX1-phage: KTX1 fused to the P3 coat protein of M13 phage with an eight amino acid linker (GVEINVKCSGSPQCLKPCKDAGMRFGKCMNRKCHCTPK; not fully specified; left off: M13 P3 coat protein C-terminal part (amino acids 216-424 of NP_510891.1) behind the linker GSASSATR, C-terminal, kept)” as the molecule, how does the “phage concentration giving approximate 50% block of hKv1.3 current” value [11] read?
**A.** ~3.6 × 10^13 particle/ml

**Q.** Which phage concentration that gave a similar (50-70%) inhibition of the hKv1.3 current, whole-cell patch-clamp on human lymphocytes [12] does the source give for “Vm24 toxin displayed on M13 phage as a fusion to the P3 coat protein (peptide)” here?
**A.** 6e+10 particle/ml

**Q.** And the estimated relative potency calculated from the phage concentration required to reach 50% blocking effect on the Kv1.3 current (relative potency) [13]?
**A.** 1

**Q.** Which results are given for KcsA-Kv1.1 turret-only chimera?
**A.** stoichiometry N [14]: 4; stoichiometry N [15]: 4

**Q.** Which results are given for KcsA-Kv1.1 turret-filter chimera?
**A.** stoichiometry N [16]: 4; stoichiometry N [17]: 4

**Q.** With KcsA-Kv1.3 turret-only chimera as the molecule, how does the stoichiometry N [18] read?
**A.** 4

**Q.** What about the stoichiometry N [19] of the same molecule?
**A.** 4

**Q.** With VSCTGSKDCYAPCRKQTGCPNAKCINKSCKCYGC [Maurotoxin, synthetic peptide] as the molecule, how does the IC50 [6] read?
**A.** 0.129 nM

**Q.** What about the IC50 [7] of the same molecule?
**A.** > 1000 nM

**Q.** What about the IC50 [8] of the same molecule?
**A.** > 1000 nM

**Q.** And the IC50 [9]?
**A.** > 1000 nM
